Laboratory results from the supplement of paper PMC9170038.

How the values were obtained:
MS2 coat protein [1] = experiment: apparent KD of MS2 coat protein, switch OFF state (with FMN for OFF switches, without FMN for ON switches); designed switch direction (-1 OFF switch, 1 ON switch): 1; higher = weaker reporter binding; conditions: FMN input: 0 or 200 uM; Eterna round: R93 (includes R88 designs)
In short: (§1)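 Titrations with SNAP-549-labelled MS2 coat protein ran in twofold steps from 0.7 or 1.5 nM to 3 µM, each step taking 0.8–1.5 h at the start and 10–20 min toward the end. The targets were designed RNA switches transcribed on-chip from Illumina sequencing clusters, held in 100 mM Tris-HCl pH 7.5, 80 mM KCl, 4 mM MgCl2, without or with constant ligand. Apparent KD was taken per design as the median of normalised cluster binding-curve fits.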

MS2 coat protein [2] = experiment: apparent KD of MS2 coat protein, switch ON state; designed switch direction (-1 OFF switch, 1 ON switch): 1; higher = weaker reporter binding; conditions: FMN input: 0 or 200 uM; Eterna round: R93 (includes R88 designs)
In short: as §1

Sequence	apparent KD of MS2 coat protein (MS2 coat protein [1])	apparent KD of MS2 coat protein (MS2 coat protein [2])
AAUAUAUUAAGUGAGGAUAUCAUAGGAAAAACAUGAGGAUCACCCAUGUGGGAAACCUGGUCGGGUGAGAAGGUACUUAAUAUAU [Samwise Clockwise 31 - Jieux - Same State 2]	0.175 µM	0.0692 µM
AAUCCAAAUAGUUAGGAUAUGGGAAUUAAAACAUGAGGAUCACCCAUGUAAUUGAAACAAGUUAACCAGAAGGGACAGGGUGAAA [JR_SS002_Sub209]	0.0461 µM	0.0688 µM
ACUAUACAUGAGGAUCACCCAUGUCAGGUGGGACUAGGAUAUCAUAAGCCAGAGUAAGUAUGAGAAGGAGUAGAAA [JR_SS001_Sub305]	0.0747 µM	0.0732 µM
AGAAAACAUGAGGAUCACCCAUGUAGGAAUAUGGGAGGAUAUACAAAGACGAAAGUCAGAGUAGAAGGCCUAGGAA [salish99-SS1-089]	0.0715 µM	0.0207 µM
AGAAAUAAAAGACAGGAUAUCCAAACUCAAACAUGAGGAUCACCCAUGUAAAAGAAAAUAAAGUGGGAGAAGGGUCAAAAUAAGA [Jieux modified + C segment V4]	0.0331 µM	0.0126 µM
AGAAAUAAAAGAGAGGAUAUCCAAAAGAAAACAUGAGGAUCACCCAUGUAAAAGAAAAUAAAAUGGGAGAAGGCUCAUGAUAAAG [JL In the Red Helter Skelter 2 mod 1]	0.0358 µM	0.042 µM
AGAAAUAAAAGCGAGGAUAUCCAAAAGAAAACAUGAGGAUCACCCAUGUAAAAGAAAAUAAAAUGGGAGAAGGCGCAAAAUAAAG	0.0273 µM	0.0147 µM
AGAAAUAAACCGAAGGAUAUCUAAACCUAAACAUGAGGAUCACCCAUGUAAAAGAAAAUAAAAUGGGAGAAGGUCGGAAAUAAGA [Designing denovo 12]	0.0299 µM	0.0175 µM
AGAAAUAAAGCUGAGGAUAUCCAAAACCAAACAUGAGGAUCACCCAUGUAAAAGAAAAUAAAAUGGGAGAAGGCAGCAAAUAAGA [Designing denovo 8]	0.0219 µM	0.0125 µM
AGAAGACAUGAGGAUCACCCAUGUGGGAAUAUGGGAGGAUAUACAAAGACGAGAGUCAGAGUAGAAGGCCUAGGAU [salish99-SS1-092]	0.118 µM	0.0373 µM
AGAAGACAUGAGGAUCACCCAUGUGGGAUUAUGGGAGGAUAUACAAAGACGAGAGUCAGAGUAGAAGGCCUAGGAG [salish99-ss1-114(!)]	0.0664 µM	0.0454 µM
AGAAUAAAAACAGAGGAUAUCCAAAAGAAAACAUGAGGAUCACCCAUGUAAAAGAAAAUAAAAUGGGAGAAGGCUGAAAAAAAGA [Mat - Same State 2 - Eli mod - D98]	0.0393 µM	0.025 µM
AGGAAACAUGAGGAUCACCCAUGUAAAAAUAUGGGAGGAUAUACAAACAGGAAAGAGAGAGUAGAAGGCCUAAAAG [Garnet 20]	0.0418 µM	0.0729 µM
AGGAAACAUGAGGAUCACCCAUGUAAAAAUAUGGGAGGAUAUACGAAGACAAAAAAAAAAGUAGAAGGCCUAAAAG [Garnet 12]	0.266 µM	0.0652 µM
AGGAAACAUGAGGAUCACCCAUGUAAAAGGUGGGUAGGAUAUGCGAAAAGAAAAAGAAAAGCAGAAGGACCAAGAA [62%, Something completely different, 1]	0.108 µM	0.0387 µM
AGGAAACAUGAGGAUCACCCAUGUAAAAGGUGGUUAGGAUAUGCGAAAAGAAAAAGAAAAGCAGAAGGGACAAGAA [Inspired by JR's SameStare1_sub2]	0.415 µM	0.237 µM
AGGAAACAUGAGGAUCACCCAUGUAAAGAUGGGCGAGGAUAUCGAAAGAAAAGAAAGAAACGAGAAGGUGCAAAAG [59%, Flamingo, 1]	0.251 µM	0.409 µM
AGGAAACAUGAGGAUCACCCAUGUAUAAAAAUGGGAGGAUAUACAAAGACGAAAGUCAAAGUAGAAGGCCUAAAAA [76%, Meechl, 7]	0.0515 µM	0.0188 µM
AGGAGACAUGAGGAUCACCCAUGUGAGAAGAGGCGAGGAUAUCGAAAGAAAGAAGAGAAACGAGAAGGCGCGAGCA [salish99-SS1-020]	0.0371 µM	0.0197 µM
AGGAGACAUGAGGAUCACCCAUGUGCACGGUGAAGAGGAUAUGUGCGUGGAGAGACACGGACAGAAGGCUUAAGAA [JR_SameState1_Sub5]	0.0389 µM	0.023 µM
AUAAAACAUGAGGAUCACCCAUGUAAAAAAGCAUGAGGAUAUAUAAAAAGAAAAAGAAGAAUAGAAGGCAUAAUAA [JR_SS001_Sub1223]	0.0505 µM	0.0607 µM
AUAAAACAUGAGGAUCACCCAUGUAGAAACAUGGGAGGAUAUACAAAGACGAAAGUCAAAGUAGAAGGCCUAAAAG [Meechl MS2 SS1 2]	0.0673 µM	0.104 µM

Sequence	apparent KD of MS2 coat protein (MS2 coat protein [1])	apparent KD of MS2 coat protein (MS2 coat protein [2])
AUAAAACAUGAGGAUCACCCAUGUAGAAAUAUGGGAGGAUAUACAAAGACGAAAGUCAAAGUAGAAGGCCUAAAAG [Mod of Meechl's design Meechl MS2 SS1 2]	0.0662 µM	0.024 µM
AUAAAACAUGAGGAUCACCCAUGUGAAAAUAUGGGAGGAUAUACGUAGACGAAAGUCGACGUAGAAGGCCUAAAAG [Same State 1.4n.2 (Mat - Mod of Eli - )]	0.0818 µM	0.0288 µM
AUAAAAGAAGCGAAGGAUAUCCAAAACUCAACAUGAGGAUCACCCAUGUAAAGAAAGAAAAAAUGGGAGAAGGUCGCAAAGAAUA [73%, More Fisker Same State 2, D3, 10]	0.0267 µM	0.0118 µM
AUAAAAUAAAAGGAGGAUAUCCAUAAUAAAACAUGAGGAUCACCCAUGUAAAAAAGAAGAAAAUGGGAGAAGGCCUAAAAUAAAU [SS2 M 27]	0.0236 µM	0.0114 µM
AUAAAAUAAACUGAGGAUAUCUAUAAUAAAACAUGAGGAUCACCCAUGUUUAAACAAAGAUCAUGGGAGAAGGCAGAAAAUAAAU [SS2 M 38]	0.0366 µM	0.0378 µM
AUAAAGAAAAGGCAGGAUAUGUAAACUAAAACAUGAGGAUCACCCAUGUGGGAAAUAAAAUAAAAACAGAAGGGCCAAAAGAAUA [Designing denovo 17]	0.0328 µM	0.0191 µM
AUAAUAUUAAGCAAGGAUAUACUAAAGUAAACAUGAGGAUCACCCAUGUAAAAAAAAAAACUCAUGUAGAAGGUGCAUAAAUAAA [moonwalk 10]	0.0331 µM	0.00892 µM
AUUCCAAAUAGUCAGGAUAUCAGAAGUAAGACAUGAGGAUCACCCAUGUACUUAGUAAAAGUAACUGAGAAGGGACAGGGUGUAA [JR_SS002_Sub405]	0.0161 µM	0.0174 µM
CAGAGACAUGAGGAUCACCCAUGUAGGAUUAUGGGAGGAUAUACAAAGACGAGAGUCAGAGUAGAAGGCCUAGGAA [salish99-ss1-141]	0.0576 µM	0.0211 µM
CGCGAACAUGAGGAUCACCCAUGUGAAAAACACAGAGGAUAUGUCGCAUGCGUGUAAAAGACAGAAGGCUGUCGCG [mod of top voted: #3]	0.084 µM	0.0197 µM
CGGAGACAUGAGGAUCACCCAUGUGAGAAGAGGCGAGGAUAUCGAAAGAAAGAAGAGAAACGAGAAGGCGCGAGUA [salish99-SS1-066]	0.0319 µM	0.0203 µM
CGGAGACAUGAGGAUCACCCAUGUGAGAAGAGGCGAGGAUAUGGAAAUAAAGAAGAGAAAUGAGAAGGCGCGAGCC [salish99-SS1-082]	0.0363 µM	0.0406 µM
CUGGACAUAGUAUAGGAUAUAUGAAUAAUUACAUGAGGAUCACCCAUGUCCAUUUAUAUGGGAACAUAGAAGGGUGGUAGUUAAG [Mat - Same state - Malcolm Mod - D142]	0.0976 µM	0.147 µM
GAAAAACAUGAGGAUCACCCAUGUAAAAAUAUGGGAGGAUAUUCAAAGACGAAAGGGAAAGAAGAAGGCCUAAAAG [Garnet 4]	1.3 µM	0.0827 µM
GAAAAACAUGAGGAUCACCCAUGUAAAAAUAUGGGAGGAUAUUGAAAGACGAAAGUCAAACAAGAAGGCCUAAAAG [Garnet 2]	0.119 µM	0.0222 µM
GAAAAACAUGAGGAUCACCCAUGUAGAAAUAUGGGAGGAUAUACAAAGACGAAAGUCAAAGUAGAAGGCCUGAAAG [77%, Mat - Mod of Eli, 1]	0.136 µM	0.0271 µM
GAAAAACAUGAGGAUCACCCAUGUAGAAAUAUGGGAGGAUAUACAAAGACGAAAGUCAAAGUAGAAGGCCUUAAAG [JL S1 M-MoE mod 1 In the Red]	0.0549 µM	0.0283 µM
GAAAAACAUGAGGAUCACCCAUGUAGAGAUAUGGGAGGAUAUACGAAGACGAAAGACGAUGUAGAAGGCCUAAAAG [Garnet 59]	0.234 µM	0.0804 µM
GAAAAACAUGAGGAUCACCCAUGUGUAAAUAUGGAAGGAUAUACAAAGACGUAAGUCAAAGUAGAAGGUCUAAAAG [Mat - Same State 1 - Eli mod - D17]	0.0235 µM	0.0188 µM
GAAAAACAUGAGGAUCACCCAUGUGUAAAUAUGGGAGGAUAUACAAAGACGAAAGUCAAAGUAGAAGGCCUAAAAG [Mat - Same State 1 - Eli mod - D5]	0.19 µM	0.0232 µM
GAACCACAUGAGGAUCACCCAUGUCAAAGAAAUCAAGGAUAUGCACAAAAGGAAAUAACUGCAGAAGGUGAACGAA [62%, Redo, 1]	0.0409 µM	0.0226 µM
